B1: LINE1-full (parent)
chain: UACGUAGGUGGUUUUCCCCUGAUAGUGCUAAGGGGGCCUGGAAGUUUGGACUGGGCAGAGCUCAACACAGCGUGGCAAAGUGGCUGUGGCUAGACUGCCUCUCUGGAUUCCUCGUCACUCAGCAGGGCAUCUCUGAGAGAAAUGCC

Variants of: B1
Assay: self-cleavage, relative activity (ratio to wild type); higher = more cleavage; in vitro, sequencing; the parent is a self-cleaving ribozyme

Row | Variant | self-cleavage
1 | UACGUAGGUGGUUUUCCCCUGAUAGUGCUAAGGGGGCCUGGAAGUUUGGACUGGGCAGAGCUCAACACAGCGUGGCAAAGUGGCUGUGGCUAGACUGCCUCUUUGGAUUCCUCGUCACUCAGCAGGGCAUCUCUGAGAGAACUGCC [C103U A142C] | 1.23
2 | UACGUAGGUGGUUUUCCCCUGUUAGUGCUAAGGGGGCCUGGAAGUUUGGACUGGGCAGAGCUCAACACAGCGUGGCAAAGUGGCUGUGGCUAGACUGCCUCUCUGGAUCCCUCGUCACUCAGCAGGGCAUCUCUGAGAGAAAUGCC [A22U U109C] | 0.91
3 | UACGUAGGUGGUUUUCCCCUUAUAGUGCUAAGGGGGCCUGGAAGUUUGGACUGGGCAGAGCUCAACACAGCGUGGCAAAGUGGCUGUGGCUAGACUGCCUCUCUGGAUUCCUCGUCACUCAGCAGGGCAUCUCUGGGAGAAAUGCC [G21U A136G] | 1.84
4 | UACGUAAGUGGUUUUCCCCUGAUAGUGCUAAGGGGGCCUGGAAGUUUGGACAGGGCAGAGCUCAACACAGCGUGGCAAAGUGGCUGUGGCUAGACUGCCUCUCUGGAUUCCUCGUCACUCAGCAGGGCAUCUCUGAGAGAAAUGCC [G7A U52A] | 0.89
5 | UACGUAGGUGGUUUUCCCCUGAUAGUGCUAAGGGGGCCUGGAAGUUUGGACUGGGCAGAGCUCAACACAGCGUGGCAAAGUGGCUGUGGCUAGACUGCCUCUCUGGAUUCCCCGUCACUCAGCAGGGCAUCUCCGAGAGAAAUGCC [U112C U134C] | 1.23
6 | UACGUAGGUGGUUUUCCCCUGAUAGUGCUAAGGGGGCCUGGAAGUUUGGACUGGGCAGAGCUCAACACAGCGUGGCAAAGUGGCCGUGGCUAGACUGCCUCUCUGGAUUCCUCGUCACUCAGCAGGGCGUCUCUGAGAGAAAUGCC [U85C A129G] | 0.16
7 | UACGUAGGUGGUUUUCCCCUGAUAGUGCUAAGGGGGCCUGGAGGUUUGGACUGGGCAGAGCUCUACACAGCGUGGCAAAGUGGCUGUGGCUAGACUGCCUCUCUGGAUUCCUCGUCACUCAGCAGGGCAUCUCUGAGAGAAAUGCC [A43G A64U] | 0.4
8 | UACGUAGGUGGUUUUCCCCUGAUAGUGCUGAGGGGGCCUGGAAGUUUGGACUGGGCAGAGCUCUACACAGCGUGGCAAAGUGGCUGUGGCUAGACUGCCUCUCUGGAUUCCUCGUCACUCAGCAGGGCAUCUCUGAGAGAAAUGCC [A30G A64U] | 0.65
9 | UACGUAGGUGGUUUUCCCCUGAUAGUGCUAAGGGGGCCUAGAAGUUUGGACUGGGCAGAGCUCAACACAGCGUGGCAAAGUGGCUGUGGCUAGACUGCCUCUCUGGAUUCCUCGUCACUCAGCAGGGCAUCUCUGAGGGAAAUGCC [G40A A138G] | 1.49
10 | UACGUAGGUGGUUUUCCCCUGAUAGUGCUAAGGGGGCCUGGAAGUUUGGACUGGGCAGAGCUCAACAUAGCGUGGCAAAGUGGCUGUGGCUAGACUGCCUCUCUGGAUUCCUCGUCGCUCAGCAGGGCAUCUCUGAGAGAAAUGCC [C68U A117G] | 0.12
11 | UACAUAGGUGGUUUUCCCCUGAUAGUGCUAAGGGGGCCUGGAAGUUUGGACUGGGCAGAGCUCAACACAGCGUGGCAAAGUGGCUGUGGCUAGACUGCCUCUCUGGAUUCCUCGUCACUCAGCAGGGCAUCUCUGAGAGAAAUGCC [G4A] | 0.89
12 | UACGUAGGUGGUUUUCCCCUGAUAGUGCUAAGGGGGCCUGGAAGUUUGGACUGGGCCGAGCUCAACACAGCGUGGCAAAGUGGCUGUGGCUAGACUGCCUCUCUGGAUUCCUCGUCACUCAGCAGGGCAUCACUGAGAGAAAUGCC [A57C U132A] | 0
13 | UACGUAGGUGGUUUUCCCCUGAUAGUGCUAAGGGGGCCUGGAAGUUUGUACUGGGCAGAGCUCAACACAGCGUGGCAAAGUGGCUGUGGCUAGACUGCCUCUCUGGAUUCCUCGUCACUCAGCUGGGCAUCUCUGAGAGAAAUGCC [G49U A124U] | 1.59
14 | UACGUAGGUGGUUUUCCCCUGAUAGUGCUAAGGGGGCCUGGAAGUUUGGACUGGGCAGAGCUCAACACAGCGUGGCAAAGUGGCUGUGGCUAGACUGCCUCUCUGGAUUCCUCGUCACUCAGCAGGGCAUCACUGAGAGAAGUGCC [U132A A142G] | 1.41
15 | UACGUAGGUGGUUUUCCCCUGGUAGUGCUAAGGGGGCCUGGAAGUUUGGACUGGGCAGAGCUCAACACAGCGUGGCAAAGGGGCUGUGGCUAGACUGCCUCUCUGGAUUCCUCGUCACUCAGCAGGGCAUCUCUGAGAGAAAUGCC [A22G U81G] | 1.03
16 | UACGUAGGUGGUUUUCCCCUGAUAGUGCUAAGGGGGCCUGGAAGUUUGGACUGGGCAGAGCUCAACACAGCGUGGCAAUGUGGCUGUGGCUAGACUGCCUCCCUGGAUUCCUCGUCACUCAGCAGGGCAUCUCUGAGAGAAAUGCC [A79U U102C] | 1.04
17 | UACGUAGGUAGUUUUCCCCUGAUAGCGCUAAGGGGGCCUGGAAGUUUGGACUGGGCAGAGCUCAACACAGCGUGGCAAAGUGGCUGUGGCUAGACUGCCUCUCUGGAUUCCUCGUCACUCAGCAGGGCAUCUCUGAGAGAAAUGCC [G10A U26C] | 0.95
18 | UACGAAGGUGGUUUUCCCCUGAUAGUGCUAAGGGGGCCUGGAAGUUUGGACUGGGCAGUGCUCAACACAGCGUGGCAAAGUGGCUGUGGCUAGACUGCCUCUCUGGAUUCCUCGUCACUCAGCAGGGCAUCUCUGAGAGAAAUGCC [U5A A59U] | 0.52
19 | UACGUAGGUGGUUUUCCCCUGAUGGUGCUAAGGGGGCCUGGAAGUUUGGACUGGGCAGAGCUCAACACAGCGUGGCAAAGUGGCUGUGGCUAGACUGCCUCUCUGGAAUCCUCGUCACUCAGCAGGGCAUCUCUGAGAGAAAUGCC [A24G U108A] | 1.49
20 | UACGUAGGUGGUUUUCCCCUGAUAGUGCUAAGGGGGCCUGGAAGUUUGGACUGGGCAGAGCUCCACACAGCGUGGCAAAGUGGCUGUGGCUAGACUGCCUCUCUGGAUUCCUCGUCACUCAGCAGGGCUUCUCUGAGAGAAAUGCC [A64C A129U] | 0.14

Row | Variant | self-cleavage
21 | UACGUAGGUGGUUUUCCCCUGAUAGUGCUAAGGGGGCCUGGAAGUUUGGACUUGGCAGAGCUCAACACAGCGUGGCAAAGUGGCUGUGGCUAGACUGCCUCUCUGGAUUCCUCGUCACUCAGCAGGGCAUCUCUGAGAGAAAUGCC [G53U] | 1.25
22 | UGCGUAGGUGGUUUUCCCCUGAUAGUGCUAAGGGGGCCUGGAAGUUUGGACUGGGCAGAGCUCAACACAGCGUGGCAAAGUGGCUGUGGCUAGACUGCCUCUCUGGAUUCCUCGUCACACAGCAGGGCAUCUCUGAGAGAAAUGCC [A2G U119A] | 0.96
23 | UACGUAGGUGGCUUUCCCCUGAUAGUGCUAAGGGGGCCUGGAAGUUUGGACUGGGCAGAGCUCAACACAGCGUGGCAAAGUGGCUGUAGCUAGACUGCCUCUCUGGAUUCCUCGUCACUCAGCAGGGCAUCUCUGAGAGAAAUGCC [U12C G88A] | 0.1
24 | UACGUAGGUGGUUUUCCCCUGAUGGUGCUAAGGGGGCCUGGAAGCUUGGACUGGGCAGAGCUCAACACAGCGUGGCAAAGUGGCUGUGGCUAGACUGCCUCUCUGGAUUCCUCGUCACUCAGCAGGGCAUCUCUGAGAGAAAUGCC [A24G U45C] | 1.12
25 | UACGUAGGUGGUUUUCCCCUGAUAGUGCUAAGGGGGCCUGGAAGUUUGGACCGGGCAGAGCUCAACACAGCGUGGCUAAGUGGCUGUGGCUAGACUGCCUCUCUGGAUUCCUCGUCACUCAGCAGGGCAUCUCUGAGAGAAAUGCC [U52C A77U] | 1.07
26 | UACGUAGGUGGUUUUCCCCUGAUAGAGCUAAGGGGGCCUGGAAGUUUGGACUGGGCAGAGCUCAACACAGCGUGGCAAAGUGGCUGUGGCUAGACUGCAUCUCUGGAUUCCUCGUCACUCAGCAGGGCAUCUCUGAGAGAAAUGCC [U26A C99A] | 0.09
27 | UACGUAGGUGGUUUUCCCCUGAUAGUGCUAAGGGGGCCUGGAAGUUUGGACUGGGCAGAGCUCAGCACAGCGUGGCAAAGUGGCUGUGGCUAGACUGCCUCUCUGGAUUCCUCGUCACUCAGCAGGGCCUCUCUGAGAGAAAUGCC [A65G A129C] | 0.02
28 | UACGUAGGUGGUUUUCCCCUGAUAGUGCUAAGGGGGCCUGGAAGUUUGGACUGGGCAGAGCUCAACACAGCGUGGCAAAGUGGCUGUGGCUAGACUGCCUCUCUGGAUUCCUCGUCCCUCAGCAGGGCAUCUCUGAGAGAAAUGCC [A117C] | 1.75
29 | CACGUAGGUGGUUUUCCCCUGAUAGUGCGAAGGGGGCCUGGAAGUUUGGACUGGGCAGAGCUCAACACAGCGUGGCAAAGUGGCUGUGGCUAGACUGCCUCUCUGGAUUCCUCGUCACUCAGCAGGGCAUCUCUGAGAGAAAUGCC [U1C U29G] | 1.45
30 | UACGUAGGUGGUUUUCCCCUGAUAGUGCUAAGGGGGCCUGGAAGUUUGGACUGGGCAGAGCUCAACACAGCGUGGCAAGGUGGCUGUGACUAGACUGCCUCUCUGGAUUCCUCGUCACUCAGCAGGGCAUCUCUGAGAGAAAUGCC [A79G G89A] | 0.03
31 | UACGUAGGUGGUAUUCCCCUGAUAGUGCUAAGGGGGCCUGGAAGUUUGGACUGGGCAGAGCUCAACACAGCGUGGCAAAGUGGCUGUGGCUAGACUGCCUCUCUGGUUUCCUCGUCACUCAGCAGGGCAUCUCUGAGAGAAAUGCC [U13A A107U] | 1.74
32 | UACGUAGGUGGUUUUCCCCUGAUAGUGAUAAGGGGGCCUGGAAGUUUGGACUGGGCAGAGCUCAACACAGCGUGGCAAAGUGGCUGUGGCUAGACUGCCUCUCUGGAUUCCUCGUUACUCAGCAGGGCAUCUCUGAGAGAAAUGCC [C28A C116U] | 1.34
33 | UACGUAGGUGGUUUUCCCCUGAUAGUGCUAAGGGGGCCUGGAAGUUUGGACUGGGCAGAGCACAACACAGCGUGGCAAAGUGGCUGUGGCUAGACUGCCUCUCUGGAUUCCCCGUCACUCAGCAGGGCAUCUCUGAGAGAAAUGCC [U62A U112C] | 0.04
34 | UACGUAGGUGGUUUUCCCCUGAUAGUGCUAAGGAGGCCUGGAAGUUUGGACUGGGCAGAGCUCAACACAGCGUGGCAAAGUGGCUGUGGCUAGACUGCCUCUCUGGAUUCCUCGUCACUCAGCGGGGCAUCUCUGAGAGAAAUGCC [G34A A124G] | 0
35 | UACGUAGGUGGUUUUCCCCUGAUAGUGCUAAGGGGGCCUGGAAGUUUGGACUGGGCAGAGCACAACACAGGGUGGCAAAGUGGCUGUGGCUAGACUGCCUCUCUGGAUUCCUCGUCACUCAGCAGGGCAUCUCUGAGAGAAAUGCC [U62A C71G] | 0.05
36 | UACGUAGGUGGUUUUCCCCUGAUAGUGCUAAGGGGGCCUGGAAGUUUGGACUGGGCAGAGCUCUACACAGCGUGGCAAAGUGGCUGUGGCUAGACUGCCUCUCUGGAUUCCUCGUCACUCAACAGGGCAUCUCUGAGAGAAAUGCC [A64U G122A] | 0.54
37 | UGCGUAGGUGGUUUUCCCCUGAUAGUGCUAAGGGGGCCAGGAAGUUUGGACUGGGCAGAGCUCAACACAGCGUGGCAAAGUGGCUGUGGCUAGACUGCCUCUCUGGAUUCCUCGUCACUCAGCAGGGCAUCUCUGAGAGAAAUGCC [A2G U39A] | 0.89
38 | UACGUAGGUGGUUUUCCCCUGAUAGUGCUAAGGGGGCCUGGAAGUUUGGACUGGGCAGAGCUCAACACAGCGUGGCAAAGUGGCUGGGGCUAGACUGCCUCUCUGGAUUCCUCGUCACUCAGCAGGGCAUCUCUGAGAGAAAAGCC [U87G U143A] | 0.22
39 | UAUGUAGGUGGUUUUCCCCUGAUAGUGCUAAGGGGGCCUGGAAGUUUGGACUGGGCAGAGCUCAACGCAGCGUGGCAAAGUGGCUGUGGCUAGACUGCCUCUCUGGAUUCCUCGUCACUCAGCAGGGCAUCUCUGAGAGAAAUGCC [C3U A67G] | 0
